Values belong to the sequence of their own block, whether it stands above or below them.
Assays:
Settings in all cases: source organism: Homo sapiens
HLA-A*03:01 [1] = assay: IEDB peptide-MHC binding, purified MHC/competitive/radioactivity; filed as Kd, often an IC50 or EC50 that approximates it; ≥ and ≤ were set here for values at or beyond the usual limits of such assays
HLA-A*11:01 = assay: as above
HLA-A*02:01 [2] = assay: as above
HLA-A*01:01 = assay: as above
HLA-A*02:01 [3] = assay: IEDB peptide-MHC binding, purified MHC/competitive/radioactivity; ≥ and ≤ were set here for values at or beyond the usual limits of such assays
HLA-A*03:01 [4] = assay: as above
HLA-A*24:02 = assay: IEDB peptide-MHC binding, purified MHC/competitive/radioactivity; filed as Kd, often an IC50 or EC50 that approximates it; ≥ and ≤ were set here for values at or beyond the usual limits of such assays

Kd (HLA-A*03:01 [1]): 35.5 nM
Kd (HLA-A*11:01): 16.4 nM
Sequence: ALAETSYVK

Kd (HLA-A*03:01 [1]): 1590 nM
Sequence: DLVGFLLLKY

IC50 (HLA-A*02:01 [3]): 980 nM
Sequence: GLLGDNQIM

IC50 (HLA-A*03:01 [4]): 786 nM
Sequence: HSAYGEPRK

Kd (HLA-A*24:02): 34.3 nM
Kd (HLA-A*02:01 [2]): 1430 nM
Sequence: IMPKTGFLII

Kd (HLA-A*02:01 [2]): 4170 nM
Sequence: KTGFLIIVLV

IC50 (HLA-A*02:01 [3]): 575 nM
Sequence: KVADLVGFL

Kd (HLA-A*02:01 [2]): 89.3 nM
Sequence: KVADLVGFLL

Kd (HLA-A*11:01): 36.9 nM
Sequence: LLTQDLVQEK

Kd (HLA-A*11:01): 15.5 nM
Sequence: LTQDLVQEK

Kd (HLA-A*03:01 [1]): 3240 nM
Sequence: LVGFLLLKYR

Kd (HLA-A*01:01): 2270 nM
Sequence: MLESVIKNY

Kd (HLA-A*03:01 [1]): 78.6 nM
Kd (HLA-A*11:01): 218 nM
Sequence: MLESVIKNYK

Kd (HLA-A*03:01 [1]): 61.1 nM
Kd (HLA-A*11:01): 24.6 nM
Sequence: RALAETSYVK

Kd (HLA-A*11:01): 393 nM
IC50 (HLA-A*03:01 [4]): 733 nM
Sequence: SLEQRSLHCK

Kd (HLA-A*03:01 [1]): 9.2 nM
Kd (HLA-A*11:01): 6 nM
Sequence: SLFRAVITKK

Kd (HLA-A*03:01 [1]): 1180 nM
Kd (HLA-A*11:01): 4.5 nM
Sequence: SVMEVYDGR

Kd (HLA-A*11:01): 5.9 nM
IC50 (HLA-A*03:01 [4]): 688 nM
Sequence: TTINFTRQR

Kd (HLA-A*02:01 [2]): 2500 nM
Sequence: VADLVGFLL

Kd (HLA-A*03:01 [1]): 2500 nM
Sequence: VGFLLLKYR

Kd (HLA-A*02:01 [2]): 139 nM
Sequence: VMIAMEGGHA

Kd (HLA-A*02:01 [2]): 357 nM
Sequence: YVIKVSARV

IC50 (HLA-A*03:01 [4]): 579 nM
Sequence: YVIKVSARVR

Kd (HLA-A*03:01 [1]): 3790 nM
Sequence: YVKVLEYVIK

Kd (HLA-A*02:01 [2]): 2170 nM
Sequence: YVLVTCLGL

Further lines, the sequence ahead of its results:

Sequence: ADLVGFLLLK
Kd (HLA-A*03:01 [1]): 31.4 nM
Kd (HLA-A*11:01): 20.3 nM

Sequence: ALGLVCVQA
Kd (HLA-A*02:01 [2]): 333 nM

Sequence: ALREEEEGV
Kd (HLA-A*02:01 [2]): 238 nM

Sequence: ETSYVKVLEY
Kd (HLA-A*01:01): 44.6 nM

Sequence: FLIIVLVMIA
Kd (HLA-A*03:01 [1]): 1180 nM

Sequence: FLWGPRALA
Kd (HLA-A*02:01 [2]): 119 nM

Sequence: GLVCVQAAT
Kd (HLA-A*02:01 [2]): 2170 nM

Sequence: IMPKTGFLI
Kd (HLA-A*24:02): 3.8 nM
IC50 (HLA-A*02:01 [3]): 649 nM

Sequence: LFRAVITKK
Kd (HLA-A*03:01 [1]): 1000 nM

Sequence: LIIVLVMIA
Kd (HLA-A*03:01 [1]): ≥ 5000 nM

Sequence: LLGDNQIMP
IC50 (HLA-A*03:01 [4]): 550 nM

Sequence: LSVMEVYDGR
Kd (HLA-A*11:01): 492 nM

Sequence: LTQDLVQEKY
Kd (HLA-A*01:01): 20.8 nM

Sequence: LVGFLLLKY
Kd (HLA-A*03:01 [1]): 196 nM

Sequence: LVLGTLEEV
Kd (HLA-A*02:01 [2]): 156 nM

Sequence: LVQEKYLEY
Kd (HLA-A*11:01): 111 nM

Sequence: MSLEQRSLH
Kd (HLA-A*03:01 [1]): 3550 nM

Sequence: NYKHCFPEI
Kd (HLA-A*24:02): 2.5 nM

Sequence: RALAETSYV
IC50 (HLA-A*02:01 [3]): 500 nM

Sequence: RVRFFFPSLR
Kd (HLA-A*03:01 [1]): 25.6 nM

Sequence: SLHCKPEEA
Kd (HLA-A*02:01 [2]): 385 nM

Sequence: SLQLVFGIDV
Kd (HLA-A*02:01 [2]): 2500 nM

Sequence: SYVKVLEYVI
Kd (HLA-A*24:02): 333 nM

Sequence: TSCILESLFR
Kd (HLA-A*11:01): 393 nM
